The source of these data is US20090130692A1.

The target in assay [1] is T1, human plasmin (Human), P00747.
T1 chain: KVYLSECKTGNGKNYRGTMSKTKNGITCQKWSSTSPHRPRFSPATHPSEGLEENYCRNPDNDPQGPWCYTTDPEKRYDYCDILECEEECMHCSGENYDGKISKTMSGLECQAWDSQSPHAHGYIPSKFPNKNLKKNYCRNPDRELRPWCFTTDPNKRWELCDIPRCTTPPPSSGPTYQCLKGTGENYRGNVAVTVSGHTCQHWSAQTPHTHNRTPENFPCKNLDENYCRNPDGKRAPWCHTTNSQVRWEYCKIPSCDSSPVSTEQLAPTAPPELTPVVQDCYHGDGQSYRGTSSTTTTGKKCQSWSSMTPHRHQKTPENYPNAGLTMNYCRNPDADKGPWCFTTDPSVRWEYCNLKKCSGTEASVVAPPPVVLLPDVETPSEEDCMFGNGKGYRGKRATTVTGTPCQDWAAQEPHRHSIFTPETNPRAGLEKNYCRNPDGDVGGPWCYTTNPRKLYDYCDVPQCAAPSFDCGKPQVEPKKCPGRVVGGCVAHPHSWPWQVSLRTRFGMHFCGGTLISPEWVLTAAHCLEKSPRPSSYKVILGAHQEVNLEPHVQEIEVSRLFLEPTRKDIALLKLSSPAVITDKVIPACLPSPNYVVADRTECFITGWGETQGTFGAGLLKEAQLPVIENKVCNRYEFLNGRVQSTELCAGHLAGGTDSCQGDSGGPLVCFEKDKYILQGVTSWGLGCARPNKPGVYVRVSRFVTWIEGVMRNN
Briefly: enzyme inhibition, selectivity panel; apparent Ki (Kiapp).

Assay [2] deals with T2, porcine trypsin (Porcine), P00761.
T2 chain: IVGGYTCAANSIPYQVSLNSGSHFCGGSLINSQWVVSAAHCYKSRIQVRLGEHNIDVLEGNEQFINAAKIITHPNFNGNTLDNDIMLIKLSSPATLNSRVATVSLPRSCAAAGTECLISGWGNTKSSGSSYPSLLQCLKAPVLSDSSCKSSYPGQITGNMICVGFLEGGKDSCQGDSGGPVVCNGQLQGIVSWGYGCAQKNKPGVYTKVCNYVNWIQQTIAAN
Described as above.

In assay [3] the target is human tryptase β-II (Human), P20231. Described as above.
Sequence of human tryptase β-II (Human), P20231 (P20231 31-275 limits assumed): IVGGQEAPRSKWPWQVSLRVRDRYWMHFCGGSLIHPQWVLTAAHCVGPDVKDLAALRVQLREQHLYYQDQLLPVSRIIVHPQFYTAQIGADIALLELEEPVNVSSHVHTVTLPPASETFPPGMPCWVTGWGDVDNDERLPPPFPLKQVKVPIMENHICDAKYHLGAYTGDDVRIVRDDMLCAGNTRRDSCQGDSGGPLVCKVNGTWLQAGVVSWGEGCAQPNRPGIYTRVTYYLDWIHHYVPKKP
For assay [4], the target named is human tryptase β-Ia (Human), Q15661. The description is as above.
Sequence of human tryptase β-Ia (Human), Q15661 (Q15661 31-275 limits assumed): as the sequence (P20231 31-275 limits assumed) above, with R21H, D22G, R23P counted along it
The target of assay [5] is sheep tryptase ST2 (Sheep). Described as above.
Sequence of sheep tryptase ST2 (Sheep) (Q9XSM2 29-273): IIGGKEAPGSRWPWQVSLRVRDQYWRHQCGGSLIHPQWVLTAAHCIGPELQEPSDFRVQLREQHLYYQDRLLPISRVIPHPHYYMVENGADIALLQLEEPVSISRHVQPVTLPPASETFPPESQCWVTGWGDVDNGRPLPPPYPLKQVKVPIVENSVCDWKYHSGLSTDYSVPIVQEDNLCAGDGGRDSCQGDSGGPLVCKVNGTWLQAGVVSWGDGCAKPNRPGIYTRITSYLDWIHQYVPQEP
In assay [6] the target is bovine pancreatic trypsin (bovine), P00760. Briefly: enzyme inhibition; residual trypsin activity fitted to tight-binding equation (Morrison); apparent Ki (Kiapp).
Sequence of bovine pancreatic trypsin (bovine), P00760 (P00760 24-246): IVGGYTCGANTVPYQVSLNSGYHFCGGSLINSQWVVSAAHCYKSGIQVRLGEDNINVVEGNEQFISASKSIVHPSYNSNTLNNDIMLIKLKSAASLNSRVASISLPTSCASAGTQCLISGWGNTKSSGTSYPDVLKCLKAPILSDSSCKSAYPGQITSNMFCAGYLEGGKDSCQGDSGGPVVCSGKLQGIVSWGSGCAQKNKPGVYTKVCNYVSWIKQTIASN
Assay [7] has as its target hK3 (human kallikrein) (Human), P07288. Nature of the assay: enzyme inhibition, selectivity panel; apparent Ki (Kiapp).

Sequence of hK3 (human kallikrein) (Human), P07288 (P07288 25-261): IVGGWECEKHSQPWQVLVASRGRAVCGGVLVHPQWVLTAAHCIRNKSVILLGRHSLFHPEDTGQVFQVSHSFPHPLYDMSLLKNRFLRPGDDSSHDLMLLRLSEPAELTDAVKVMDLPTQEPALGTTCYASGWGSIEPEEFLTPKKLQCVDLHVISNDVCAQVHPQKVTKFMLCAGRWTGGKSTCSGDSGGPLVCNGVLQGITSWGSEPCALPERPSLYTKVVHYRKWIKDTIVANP

Take KKVGVCPKILKKCRRDSDCPGACICRGNGYCG (modifications not checked) [MCoTI-KKV]: the Ki stood at 400 nM in assay [1]; 0.4 nM in assay [2]; 4 nM in assay [3]; 3 nM in assay [4]; 100 nM in assay [5]; 0.4 nM in assay [6].
Take GVCPRILKKCRRDSDCPGACICRGNGYCG (modifications not checked) [MCoTI-R]: the Ki in assay [2] stood at 0.8 nM; in assay [3], 40 nM; in assay [7], 100 nM; in assay [4], 40 nM; in assay [5] it was 1000 nM; in assay [6], 0.8 nM.
Regarding GVCPKILKKCRRDSDCLAGCVCGPNGFCGS (modifications not checked) [SE-MG-0], the Ki came out at 600 nM in assay [1]; 0.3 nM in assay [2]; 70 nM in assay [3]; 70 nM in assay [4]; 4000 nM in assay [5]; 0.3 nM in assay [6].
Regarding GVCPKILRKCRRDSDCPGACICRGNGYCG (modifications not checked) [MCoTI-LRKC], the Ki in assay [6] came out at 0.5 nM.
The same measure, in the same setting: as for GVCPKILKKCRRDSDCPGACICRGNGYCG (modifications not checked) [SE-MC-K], the figure is 0.3 nM; as for GSVCPKILKKCRRDSDCLAGCVCGPNGFCGS (modifications not checked) [MCoEeTI], 0.03 nM.
The same measure, in the same setting: as for GVCPKILKRCRRDSDCPGACICRGNGYCG (modifications not checked) [MCoTI-LKRC], the figure is 0.4 nM; as for GVCPKILAKCRRDSDCPGACICRGNGYCG (modifications not checked) [MCoTI-LAKC], 0.2 nM; as for GVCPKILKACRRDSDCPGACICRGNGYCG (modifications not checked) [MCoTI-LKAC], 0.4 nM.
The same measure, in the same setting: as for GVCPGILKKCRRDSDCPGACICRGNGYCG (modifications not checked) [MCoTI-AlaG], the figure is 1000 nM.
